Source: US20240280570A1
Read-outs that look alike come from different tables or passages of the source.

What was measured:
[1] = biological target: SARS-CoV-2 RBD (Sino Biological 40592-V08H); Spike Receptor Binding Domain residues R319 - F541 His tagged (SARS-CoV-2) (UniProt P0DTC2); assay: OECT sensor, PEDOT:PSS channel, nanobody on gate, target in buffer
[2] = biological target: SARS-CoV-2 RBD (Sino Biological 40592-V08H); Spike Receptor Binding Domain residues R319 - F541 His tagged (SARS-CoV-2) (UniProt P0DTC2)
[3] = biological target: SARS-CoV-2 RBD (Sino Biological 40592-V08H); Spike Receptor Binding Domain residues R319 - F541 His tagged (SARS-CoV-2) (UniProt P0DTC2); remark: listed apart in the source

VHH72-8 aa-spyCatcher-3C cleavage site-His8
LOD [1]: 0.024 pM | LOD [2]: 0.048 pM | LOD [3]: 0.023 pM
